Assay [1] deals with human Claudin18.2 (human). The assay is described as follows: cell-based or functional assay.
In assay [2] the target is T1, human Claudin18.2 (human).
T1 construct: also called hClaudin18.2; huClaudin18.2
The assay is described as follows: flow cytometry on HEK293/hClaudin18.2 cells, Scatchard plot. As for the experimental part:
On the day of experiment, HEK293/hClaudin18.2 cells were collected into a U-bottomed 96-well plate at 1×10⁵ to 2×10⁵ cells per well. A human Claudin18.2 antibody that was 2× diluted serially (12 concentration points) from an initial concentration of 5 μg/mL was added, and the plate was incubated at 4° C. for 1 h. IMAB362 was used as a positive control, and a negative control with no antibody was also provided. The antibody was removed by centrifugation, and FITC anti-human IgG Fc antibody (200×) was added at 100 μL/well. The plate was incubated in the dark at 4° C. for 30 min and washed twice with PBS+2% FBS before flow cytometry analysis. BD FACS CantoII was started and preheated, and then the BD FACSDiva software was run to start a new experiment. […] The samples in the U-bottomed 96-well plate were tested at the saved voltage, and data were recorded. The experimental data were analyzed using Flowjo software to obtain a Geo mean, and an MESF-Geo Mean standard curve was fit according to the instructions for Quantum™ FITC-5 MESF Kit. The molar concentration of the human Claudin18.2 antibody bound to HEK293/hClaudin18.2 cells and the free antibody concentration were calculated according to the concentration fluorescence value of the FITC anti-human IgG Fc antibody, and the Bmax and the dissociation constant KD of the antibody were calculated through Scatchard plots.
(In general: Flow cytometry measures light scatter and fluorescence of single cells or particles in a stream.)

Assay [3] has as its target T1, human Claudin18.2. In words: cell-based ELISA on fixed NUGC4 cells stably expressing Claudin18.2. Here is the method:
(§1) Cell-based ELISA assay was used to test the binding properties of the Claudin18.2 antibodies. The stably transfected Claudin18.2-expressing NUGC4 cells were cultured in a 96-well cell plate (Corning, 3599). When growing at 90% density, the cells were immobilized with 4% paraformaldehyde for 1 h. The plate was washed 3 times with PBST buffer (pH 7.4 PBS containing 0.05% Tween-20), and a PBS-diluted 5% skim milk (powdered skim milk from Brightdairy) blocking solution was added at 200 μL/well. The plate was incubated in a 37° C. incubator for 2.5 h or was let stand at 4° C. overnight (16-18 h) for blocking. After blocking, the blocking solution was removed. The plate was washed 3 times with the PBST buffer, and then a test antibody that was diluted with a sample diluent (pH 7.4 PBS containing 1% skim milk) to different concentrations was added at 50 μL/well. The plate was incubated in a 37° C. incubator for 2 h. […] The plate was incubated at 37° C. for 1 h. The plate was washed 6 times with PBST, and then TMB chromogenic substrate (KPL, 52-00-03) was added at 50 µL/well. The plate was incubated at room temperature for 10-15 min, and the reaction was terminated by adding 1 M H₂SO₄ at 50 μL/well. The absorbance at 450 nm was read using an MD Versa Max™ microplate reader, and the binding EC50 value of the Claudin18.2 antibody to Claudin18.2 was calculated.
On the technique in general: ELISA stands for enzyme-linked immunosorbent assay.

Assay [4] deals with T1, human Claudin18.2. The assay is described as above. As for the experimental part:
as §1
The source holds these as a separate data set.

Assay [5] concerns the target T1, human Claudin18.2. Described as above. As for the experimental part: as §1
The source holds these as a separate data set.

Assay [6] addresses T1, human Claudin18.2. In words: cell-based ELISA (absorbance at 450 nm) on fixed NUGC4 cells stably expressing Claudin18.2. Here is the method: as §1
For assay [7], the target named is T1, human Claudin18.2. The description is as above. Here is the method:
as §1
The source holds these as a separate data set.

Assay [8] addresses T1, human Claudin18.2. The assay is described as above. Here is the method:
as §1
This is another data set of the same source.

For assay [9], the target named is T1, human Claudin18.2. In words: cell-based or functional assay. The source holds these as a separate data set.

The values below come from patent US20240024498A1 (JIANGSU HENGRUI PHARMACEUTICALS, published 2024).

Positions count from the first letter of the chain named. Read-outs that look alike come from different tables or passages of the source. Bounds are passed on as bounds.

Broadly, the Kd is the constant that tells how readily two partners part at equilibrium. Read a low Kd as higher affinity. What is called EC50 is the concentration giving half of the maximal effect. The low end stands for an effect from little substance, the high end for a need for much substance.

B1: IMAB-362 (antibody, human IgG1, kappa, V domains shown)
VH: QVQLQQPGAELVRPGASVKLSCKASGYTFTSYWINWVKQRPGQGLEWIGNIYPSDSYTNYNQKFKDKATLTVDKSSSTAYMQLSSPTSEDSAVYYCTRSWRGNSFDYWGQGTTLTVSS
VL: DIVMTQSPSSLTVTAGEKVTMSCKSSQSLLNSGNQKNYLTWYQQKPGQPPKLLIYWASTRESGVPDRFTGSGSGTDFTLTISSVQAEDLAVYYCQNDYSYPFTFGSGTKLEIKR
notes: Positive control antibody, from WO2016166122; also called positive control antibody
With B1, in assay [1], the “ADCC effect, IC50 (FcrR3A-V158-NFAT-RE-Jurkat reporter; NUGC4 cells, high Claudin18.2 expression)” value worked out at 0.133 µg/mL. Moreover, the “ADCC effect, IC50 (FcrR3A-V158-NFAT-RE-Jurkat reporter; NUGC4 cells, low Claudin18.2 expression)” value in [1] came out at 0.183 µg/mL. Also, the “ADCC effect, IC50 (FcrR3A-V158-NFAT-RE-Jurkat reporter; NUGC4 cells, moderate Claudin18.2 expression)” value in [1] turned out to be 0.21 µg/mL. Besides, binding in assay [2] was characterised by a dissociation constant (Kd) of 10.2 nM. Further, the EC50 in [3] is 0.108 nM; in [4], 0.086 nM; in assay [5], 0.187 nM. In addition, the Emax in assay [6] came to 1.18; in assay [7], 1.11; in [8], 0.88.

B2: chimeric antibody ch1902 (antibody, human IgG1, kappa, V domains shown)
VH: EVQLQESGAELVKPGASVKLSCKASGYIFTSYWMHWVKQRPGQGLEWIGMIHPNSGSTNYNEKFKGKATLTLDKSSSTAYMQLSSLPSEDSAVYYCARLKTGNSFDYWGQGTTLTVSS
VL: B1 VL with M4L, V91I, D97A, S99T
notes: Murine mAb1902 variable regions on human IgG1 / kappa constant regions
In assay [3], B2 gave an EC50 of 0.074 nM. Besides, the Emax in assay [6] is 1.27.

B3: h1901-11 (antibody, human IgG1, kappa, V domains shown)
VH: EVQLVESGGGLVQPGGSLRLSCAASGFTFSDYGIHWVRQAPGKGLEWIAYISRGSSTIYYADTVKGRFTISRDNAKNSLYLQMTSLRAEDTAVYYCARGGYDTRNAMDYWGQGTTVTVSS
VL: DIVMTQSPDSLAVSLGERATISCKSSQSLLNSGNQKNYLAWYQQKPGQPPKLLIYGASTRASGVPDRFSGSGSGTDFTLTISSLQAEDVAIYHCQNDLYYPLTFGQGTKLEIKR
notes: Humanized antibody of mAb1901, L3 + H3, human IgG1/kappa
As for B3, in assay [1], the “ADCC effect, IC50 (FcrR3A-V158-NFAT-RE-Jurkat reporter; NUGC4 cells, high Claudin18.2 expression)” value was 0.0262 µg/mL; the “ADCC effect, IC50 (FcrR3A-V158-NFAT-RE-Jurkat reporter; NUGC4 cells, low Claudin18.2 expression)” value was found to be 0.0224 µg/mL; the “ADCC effect, IC50 (FcrR3A-V158-NFAT-RE-Jurkat reporter; NUGC4 cells, moderate Claudin18.2 expression)” value turned out to be 0.0154 µg/mL. In assay [2], this molecule yielded a Kd of 6.8 nM. The molecule further registered an EC50 in assay [4] of 0.076 nM. The same molecule returned an Emax in assay [7] of 1.44.

B4: ADC-5 (antibody, human IgG1, kappa, V domains shown)
VH: B3 VH
VL: B3 VL
modifications: compound 9-A coupled to sulfhydryl groups after TCEP reduction; mean drug loading n=6.8 per antibody; positions not given
As for B4, in assay [9], the “in vitro cell killing EC50, NUGC4-claudin18.2 high expression cells (CellTiter-Glo)” value was found to be 3.5 nM; the “in vitro cell killing EC50, NUGC4-claudin18.2 low expression cells (CellTiter-Glo)” value was 142 nM; the “in vitro cell killing Emax, NUGC4-claudin18.2 high expression cells (CellTiter-Glo)” value is 95.9; the “in vitro cell killing Emax, NUGC4-claudin18.2 low expression cells (CellTiter-Glo)” value was found to be 69.9.

B5: ADC-3 (antibody, human IgG1, kappa, V domains shown)
VH: B3 VH
VL: B3 VL
modifications: compound 9-A coupled to sulfhydryl groups after TCEP reduction; mean drug loading n=2.51 per antibody; positions not given
On to B5, for which, in assay [9], the “in vitro cell killing EC50, NUGC4-claudin18.2 high expression cells (CellTiter-Glo)” value stood at 94 nM; the “in vitro cell killing EC50, NUGC4-claudin18.2 low expression cells (CellTiter-Glo)” value is more than 500 nM; the “in vitro cell killing Emax, NUGC4-claudin18.2 high expression cells (CellTiter-Glo)” value came to 78.7; the “in vitro cell killing Emax, NUGC4-claudin18.2 low expression cells (CellTiter-Glo)” value was 49.

B6: ADC-2 (antibody, human IgG1, kappa, V domains shown)
VH: B3 VH
VL: B3 VL
modifications: compound 9-A coupled to sulfhydryl groups after TCEP reduction; mean drug loading n=7.1 per antibody; positions not given
Turning to B6, in [9], the “in vitro cell killing EC50, NUGC4-claudin18.2 high expression cells (CellTiter-Glo)” value turned out to be 1.9 nM; the “in vitro cell killing EC50, NUGC4-claudin18.2 low expression cells (CellTiter-Glo)” value was 109 nM; the “in vitro cell killing EC50, NUGC4-claudin18.2 moderate expression cells (CellTiter-Glo)” value came to 16.8 nM; the “in vitro cell killing Emax, NUGC4-claudin18.2 high expression cells (CellTiter-Glo)” value came out at 91.1. Further, the “in vitro cell killing Emax, NUGC4-claudin18.2 low expression cells (CellTiter-Glo)” value in assay [9] stood at 69.8.

B7: ADC-4 (antibody, human IgG1, kappa, V domains shown)
VH: B3 VH
VL: B3 VL
modifications: compound 9-A coupled to sulfhydryl groups after TCEP reduction; mean drug loading n=4.06 per antibody; positions not given
B7: in assay [9], the “in vitro cell killing EC50, NUGC4-claudin18.2 high expression cells (CellTiter-Glo)” value worked out at 12 nM; the “in vitro cell killing EC50, NUGC4-claudin18.2 low expression cells (CellTiter-Glo)” value is 299 nM; the “in vitro cell killing Emax, NUGC4-claudin18.2 high expression cells (CellTiter-Glo)” value came out at 85; the “in vitro cell killing Emax, NUGC4-claudin18.2 low expression cells (CellTiter-Glo)” value turned out to be 61.

B8: h1901-12 (antibody, human IgG1, kappa, V domains shown)
VH: B3 VH with I48V, I70M
VL: B3 VL
notes: Humanized antibody of mAb1901, L3 + H4, human IgG1/kappa
In the case of B8, the midpoint of the response in assay [4], the EC50, lay at 0.116 nM. The Emax in [7] came out at 1.22.

B9: chimeric antibody ch1901 (antibody, human IgG1, kappa, V domains shown)
VH: EVQLMESGGGLVKPGGSLKLSCAASGFTFSDYGIHWVRQAPEMGLEWIAYISRGSSTIYYADTVKGRFTMSRDNAKNTLFLQMTSLRSEDTAMYYCARGGYDTRNAMDYWGQGTSVTVSS
VL: DIVMTQSPSSLSVSAGEKVTMSCKSSQSLLNSGNQKNYLAWYQQKPGQPPKLLIYGASTRASGVPDRFTGSGSGTDFTLTISSVQAEDLAIYHCQNDLYYPLTFGAGTKLELKR
notes: Murine mAb1901 variable regions on human IgG1 / kappa constant regions
Regarding B9, the EC50 in [3] is 0.098 nM. This molecule also displayed an Emax in assay [6] of 1.4.
